Target: MtrC_(DI,II,memb), lipid-anchored truncated MtrC comprised only of domains I and II (Shewanella oneidensis MR-1) (UniProt Q8EG34)

- rate of reduction of 700 nM soluble OmcA by whole S. oneidensis ΔmtrC/omcA cells producing MtrC (DI,II)AB, against S. oneidensis MR-1 (fold lower rate): 4
Substance: soluble OmcA (from UniProt Q8EG33 1-735) (natural protein)

— publication PMC12304082
